# Assay results from paper PMC10752894, “Structural basis for DNA proofreading” (Nature Communications, 2023).
# Molecular target: ΔG-loop Polγ holoenzyme (Homo sapiens, UniProt P54098;Q9UHN1 26-760+770-1239;26-485, internal_change)
# Experiment: EMSA; 10 mM Mg2+; affinity not affected by deletion; EMSA: 40 mM Tris-HCl pH 7.9, 60 mM NaCl, 10 mM MgCl2, 5% glycerol, 20 mM 2-mercaptoethanol, 0.1 mg/ml BSA, 150 nM Cy3 scaffold, 10 min room temperature; 0.5% agarose, 0.5X TBE, 4 °C
# Details: protein: recombinant; tags: N-terminal His (both subunits); copies: 1;2; label: 5'-Cy3 on DNA24; primer-template, 24 nt 5' template overhang
# ΔG-loop Polγ holoenzyme, sequence (P54098 other isoform, or with tags, fused parts or gaps | mutant, chain 1 of 2): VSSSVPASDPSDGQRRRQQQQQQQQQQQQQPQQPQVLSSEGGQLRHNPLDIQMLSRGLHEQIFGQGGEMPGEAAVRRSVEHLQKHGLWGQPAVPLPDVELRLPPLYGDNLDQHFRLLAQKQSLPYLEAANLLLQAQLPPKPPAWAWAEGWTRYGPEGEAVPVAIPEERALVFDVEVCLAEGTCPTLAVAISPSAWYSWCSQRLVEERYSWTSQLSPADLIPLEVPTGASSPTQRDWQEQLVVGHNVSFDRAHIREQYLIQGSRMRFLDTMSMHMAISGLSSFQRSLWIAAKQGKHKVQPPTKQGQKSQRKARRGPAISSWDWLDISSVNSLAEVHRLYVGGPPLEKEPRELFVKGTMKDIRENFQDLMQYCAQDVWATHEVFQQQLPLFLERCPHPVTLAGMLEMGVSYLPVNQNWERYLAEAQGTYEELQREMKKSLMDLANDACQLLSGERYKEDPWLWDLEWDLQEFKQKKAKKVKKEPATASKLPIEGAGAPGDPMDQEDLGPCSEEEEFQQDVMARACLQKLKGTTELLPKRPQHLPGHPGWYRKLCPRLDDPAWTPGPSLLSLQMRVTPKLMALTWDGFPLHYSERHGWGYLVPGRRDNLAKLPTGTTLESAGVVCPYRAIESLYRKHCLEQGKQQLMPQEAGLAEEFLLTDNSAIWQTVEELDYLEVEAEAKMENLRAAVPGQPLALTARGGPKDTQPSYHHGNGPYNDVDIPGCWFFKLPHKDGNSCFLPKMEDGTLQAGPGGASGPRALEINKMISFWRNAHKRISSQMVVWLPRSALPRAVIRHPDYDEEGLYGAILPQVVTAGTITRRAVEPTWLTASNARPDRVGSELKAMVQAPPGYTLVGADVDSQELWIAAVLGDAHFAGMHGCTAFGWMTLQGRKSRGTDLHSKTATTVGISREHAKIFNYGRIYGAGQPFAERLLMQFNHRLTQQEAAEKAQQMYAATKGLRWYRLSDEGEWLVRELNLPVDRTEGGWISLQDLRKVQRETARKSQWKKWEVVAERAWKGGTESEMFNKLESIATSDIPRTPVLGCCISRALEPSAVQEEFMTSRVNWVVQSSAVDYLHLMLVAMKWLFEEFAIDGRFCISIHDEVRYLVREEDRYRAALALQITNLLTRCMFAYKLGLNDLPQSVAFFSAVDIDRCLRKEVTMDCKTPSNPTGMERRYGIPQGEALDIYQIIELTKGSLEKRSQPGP
# ΔG-loop Polγ holoenzyme, sequence (Q9UHN1 26-485, stated change not applied, chain 2 of 2): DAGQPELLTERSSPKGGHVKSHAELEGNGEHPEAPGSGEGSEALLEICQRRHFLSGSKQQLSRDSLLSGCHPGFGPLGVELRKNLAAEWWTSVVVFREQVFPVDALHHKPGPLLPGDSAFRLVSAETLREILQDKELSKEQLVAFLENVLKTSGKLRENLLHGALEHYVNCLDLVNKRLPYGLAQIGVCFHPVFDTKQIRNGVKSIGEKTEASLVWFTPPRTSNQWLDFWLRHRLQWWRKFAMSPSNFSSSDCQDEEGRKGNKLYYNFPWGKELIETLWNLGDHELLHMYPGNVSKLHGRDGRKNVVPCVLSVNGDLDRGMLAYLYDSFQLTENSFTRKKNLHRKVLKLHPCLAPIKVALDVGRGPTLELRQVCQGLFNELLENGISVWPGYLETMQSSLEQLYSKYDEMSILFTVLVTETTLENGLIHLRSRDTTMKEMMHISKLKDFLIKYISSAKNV
binder,measurement,value
DNA24/DNA24TS (dsDNA) DNA 1: GGTACAACTTGACGACATAGCGTG DNA 2: CGGTCGAGTCACGACTCCGATTATCACGCTATGTCGTCAAGTTGTACC,binding result,binds
